According to publication PMC4721865:

Assays:
[1] = molecular target: ASP1-GST fusion protein (aspartic protease ASP-1 of C. elegans) (C. elegans) (UniProt G5EEI4); test: ELISA; plates coated with 0.5 ug ASP-1/well in 20 mM HEPES pH 8.0, blocked with PBST 3% BSA, increasing concentrations of biotinylated toxin; specific binding = total minus binding with 1000-fold molar excess of unlabeled Cry6Aa
[2] = molecular target: ASP1-GST fusion protein (aspartic protease ASP-1 of C. elegans) (C. elegans) (UniProt G5EEI4); test: ITC; 25 C, 20 mM HEPES pH 8.0; 21.16 uM Cry6Aa titrated into 2.20 uM ASP-1 in the cell, 20 injections of 10 uL

| Substance | Kd [1] [nM] | Kd [2] [nM] |
| --- | --- | --- |
| biotin-labeled crystal protein Cry6Aa (from UniProt Q45757 1-475) (natural protein) | 146 |  |
| crystal protein Cry6Aa (unlabeled) (from UniProt Q45757 1-475) (natural protein) |  | 126 |
